Here are results for one molecule from paper PMC8956514.

This series deals with DNMT5 (Cryptococcus neoformans, UniProt J9VI03 58-2377). As to the kind of experiment: fluorescence polarization. Background: Polarisation of emitted light reports the rotation of a fluorescent probe.
DNMT5, sequence (J9VI03 58-2377): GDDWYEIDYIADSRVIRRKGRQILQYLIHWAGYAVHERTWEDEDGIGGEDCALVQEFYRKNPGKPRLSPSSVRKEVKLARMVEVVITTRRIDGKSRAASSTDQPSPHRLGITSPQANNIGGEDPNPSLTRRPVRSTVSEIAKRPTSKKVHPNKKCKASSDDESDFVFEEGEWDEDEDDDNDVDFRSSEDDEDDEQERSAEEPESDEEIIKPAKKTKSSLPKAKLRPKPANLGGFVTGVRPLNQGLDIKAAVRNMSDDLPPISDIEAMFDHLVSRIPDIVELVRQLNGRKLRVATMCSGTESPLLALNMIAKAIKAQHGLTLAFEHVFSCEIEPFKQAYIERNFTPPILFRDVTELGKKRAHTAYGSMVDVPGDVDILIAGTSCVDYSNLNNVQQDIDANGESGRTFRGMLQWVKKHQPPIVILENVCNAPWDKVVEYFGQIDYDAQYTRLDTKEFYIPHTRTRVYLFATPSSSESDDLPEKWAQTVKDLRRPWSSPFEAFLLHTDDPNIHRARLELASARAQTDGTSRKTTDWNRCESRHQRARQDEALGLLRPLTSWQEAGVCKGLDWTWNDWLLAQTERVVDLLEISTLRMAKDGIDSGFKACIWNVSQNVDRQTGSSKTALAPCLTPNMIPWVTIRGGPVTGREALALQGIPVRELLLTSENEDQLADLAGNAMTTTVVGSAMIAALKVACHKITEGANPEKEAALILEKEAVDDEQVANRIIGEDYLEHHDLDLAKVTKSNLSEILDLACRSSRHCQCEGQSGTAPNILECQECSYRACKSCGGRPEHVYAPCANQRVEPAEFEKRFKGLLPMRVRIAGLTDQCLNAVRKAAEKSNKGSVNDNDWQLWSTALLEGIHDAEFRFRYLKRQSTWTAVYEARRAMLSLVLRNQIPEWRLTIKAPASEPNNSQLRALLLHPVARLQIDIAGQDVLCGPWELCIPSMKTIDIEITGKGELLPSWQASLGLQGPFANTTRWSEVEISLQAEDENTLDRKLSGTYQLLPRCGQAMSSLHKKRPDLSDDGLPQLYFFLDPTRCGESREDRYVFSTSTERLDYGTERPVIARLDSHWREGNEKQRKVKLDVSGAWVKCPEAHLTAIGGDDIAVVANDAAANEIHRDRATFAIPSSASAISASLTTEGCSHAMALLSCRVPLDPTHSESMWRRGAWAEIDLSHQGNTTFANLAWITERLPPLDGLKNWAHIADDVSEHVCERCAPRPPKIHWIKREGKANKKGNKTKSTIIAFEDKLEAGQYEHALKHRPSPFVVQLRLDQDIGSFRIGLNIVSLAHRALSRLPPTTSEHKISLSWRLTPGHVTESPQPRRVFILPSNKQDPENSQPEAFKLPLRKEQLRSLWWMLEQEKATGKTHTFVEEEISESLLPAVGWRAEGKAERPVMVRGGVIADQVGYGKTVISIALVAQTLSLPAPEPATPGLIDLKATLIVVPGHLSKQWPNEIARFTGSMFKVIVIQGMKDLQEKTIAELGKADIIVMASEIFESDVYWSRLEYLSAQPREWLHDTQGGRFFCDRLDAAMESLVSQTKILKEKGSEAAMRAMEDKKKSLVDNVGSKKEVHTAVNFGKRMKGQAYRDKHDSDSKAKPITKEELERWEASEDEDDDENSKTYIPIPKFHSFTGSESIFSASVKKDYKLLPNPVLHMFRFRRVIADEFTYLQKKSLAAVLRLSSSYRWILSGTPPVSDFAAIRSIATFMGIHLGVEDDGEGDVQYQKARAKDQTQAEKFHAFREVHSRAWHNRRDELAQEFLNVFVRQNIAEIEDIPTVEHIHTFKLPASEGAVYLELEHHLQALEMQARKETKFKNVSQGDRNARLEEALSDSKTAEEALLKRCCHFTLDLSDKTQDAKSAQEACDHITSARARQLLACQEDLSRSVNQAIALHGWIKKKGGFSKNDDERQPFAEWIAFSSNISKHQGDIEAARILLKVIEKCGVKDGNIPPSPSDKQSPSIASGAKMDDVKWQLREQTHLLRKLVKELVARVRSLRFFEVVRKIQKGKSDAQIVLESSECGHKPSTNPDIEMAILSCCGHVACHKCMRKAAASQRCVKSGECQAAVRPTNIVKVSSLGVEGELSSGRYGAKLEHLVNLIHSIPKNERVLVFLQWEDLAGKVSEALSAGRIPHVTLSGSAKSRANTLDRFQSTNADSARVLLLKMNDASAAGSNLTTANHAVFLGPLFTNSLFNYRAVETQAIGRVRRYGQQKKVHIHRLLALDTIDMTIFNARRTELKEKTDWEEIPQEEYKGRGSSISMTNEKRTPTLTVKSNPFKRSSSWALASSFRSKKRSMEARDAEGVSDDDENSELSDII

B1: FAM-hmDNA (dsDNA)
DNA 1: CCATGCGCTGACACTAGAATTGCCTAAGACCATACA
DNA 2: TGTATGGTCTTAGGCAATTCTAGTGTCAGCGCATGG
modifications: 5-methylcytosine at position 30 of strand 2 (hemimethylated CpG)
Take B1: the binding signal is ~4 fold preference over umDNA.
